The target of test [1] is F-actin (rabbit skeletal muscle α-actin, filamentous) (rabbit (Oryctolagus cuniculus)) (UniProt P68135). Description: cryo-EM structure.
The target is the same in test [2]. Description: other fluorescence titration.
Test [3] has the same target. As to the kind of experiment: fluorescence polarisation. Background: Fluorescence polarisation rises when a labelled molecule tumbles more slowly, as on binding a larger partner.
For test [4] the target is unchanged. As to the kind of experiment: single-molecule TIRF microscopy.

The source of these data is PMC11162321.

A word on the Kd: it is a measure of binding affinity in units of concentration. Higher therefore signals weaker binding. Broadly, the koff is the first-order rate constant of dissociation.

SipAC (SipA residues 425-685), unlabelled, sequence (P0CL52 425-685): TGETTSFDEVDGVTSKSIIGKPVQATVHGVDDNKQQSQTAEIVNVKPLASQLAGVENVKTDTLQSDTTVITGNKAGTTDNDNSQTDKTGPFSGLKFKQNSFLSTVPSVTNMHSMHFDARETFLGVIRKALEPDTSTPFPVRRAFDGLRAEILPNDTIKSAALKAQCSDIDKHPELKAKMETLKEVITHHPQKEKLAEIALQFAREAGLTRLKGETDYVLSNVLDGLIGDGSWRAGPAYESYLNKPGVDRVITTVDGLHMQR
FM-SipAC (SipA residues 425-685 labelled with fluorescein maleimide), sequence (P0CL52 425-685): as above
Alexa-647-SipAC (SipA residues 425-685 labelled with Alexa Fluor 647 maleimide), sequence (P0CL52 425-685): as above

In turn, “SipAC (SipA residues 425-685), unlabelled (from UniProt P0CL52 425-685) (domain or fragment)” had a stoichiometry N (SipAC per actin) in test [1] of 0.5. Further, the Kd in test [2] came to 180 pM; in test [3], 5000 pM.
In the case of “Alexa-647-SipAC (SipA residues 425-685 labelled with Alexa Fluor 647 maleimide) (from UniProt P0CL52 425-685) (domain or fragment)”, in test [4], the Kd came out at 100 pM and the koff was found to be 0.00038 s⁻¹.
For “FM-SipAC (SipA residues 425-685 labelled with fluorescein maleimide) (from UniProt P0CL52 425-685) (domain or fragment)”, in test [3], the Kd was 900 pM and the dissociation rate constant (koff) came out at 0.00304 s⁻¹.
